Laboratory results taken from US8841270B2, “Use of inhibitors of Zdhhc2 activity for modulation of adipogenesis” (Sanofi, priority 2009, dated 2014).

How the values were obtained:
C57BL/6J mice = assay: Rimonabant treatment of high fat diet fed mice, glucose tolerance; type: in vivo, mouse; settings: HFD C57BL/6J mice, rimonabant 10 mg·kg−1·day−1 for one month
Description: C57BL/6J mice, which are obesity-prone (5), were fed for 6 months with a high fat diet (HFD).

3T3-L1 cells = assay: Adipogenesis of retrovirally transduced 3T3-L1 cells (oil-red-O staining, aP2 mRNA by RT-PCR); type: cell-based, mouse
Procedure: 3T3-L1 cells were cultured in DMEM (Gibco) with 10% FBS (Gibco) at 5% CO2. After retroviral infection (see below), cells were allow to grow to confluence in either 100-mm or 60-mm dishes in DMEM with 10% FBS. Once confluence was reached, cells were exposed to differentiation medium containing dexamethasone (1 μM), insulin (5 μg/ml), and isobutylmethylxanthine ([…]) (DMI). After 2 days cells were maintained in medium containing insulin ([…]) until ready for harvest at 7 days.
After 7 to 10 days of differentiation, cells were washed once in PBS and fixed with formaldehyde (Formalde-fresh; Fisher) for 15 minutes. The staining solution was prepared by dissolving 0.5 g oil-red-0 in 100 ml of isopropanol; 60 ml of this solution was mixed with 40 ml of distilled water. After 1 hour at room temperature the staining solution was filtered and added to dishes for 4 hours. The staining solution was then removed and cells were washed twice with distilled water.
Retroviruses were constructed in the RNAi-Ready pSIREN-RetroQ ZsGreen (pSIREN Clontech). Viral constructs were transfected using calcium-phosphate method described in Jordan, M. et al. (2004) into 293 HEK packaging cells along with constructs encoding gag-pol and the VSV-G protein. […]

Zdhhc2 = assay: shRNA knockdown of Zdhhc2 expression, mRNA by RT-PCR; type: cell-based, mouse; settings: shRNA in pSIREN plasmid, tested in 293T HEK cells; mRNA by RT-PCR (FIG. 3A)
Description: shRNAs were constructed using the RNAi-Ready pSIREN-RetroQ ZsGreen (Clontech). Target sequences for Zdhhc2 were designed by querying the Whitehead siRNA algorithm (http://jura.wi.mit.edu/bioc/siRNAext/) as well as the siRNA designer software from Clontech (http://bioinfo.clontech.com/rnaidesigner/); at least two sequences represented by both algorithms were subcloned into the pSIREN vectors (Clontech) using the EcoRI and BamH1 restriction sites. The following target sequences for Zdhhc2 were chosen SEQ ID NO. 5 and 6 as a negative control, we used the following siRNA sequence against luciferase: SEQ ID NO. 7.
The specificity of shRNAs was tested in 293T HEK cells co-transfected using calcium-Phosphate methods described in (14) with expression vectors containing Zdhhc2 cDNA and the RNAi-Ready pSIREN-RetroQ ZsGreen vector expressing either the shRNA against lucifeare (control shLUC) or Zdhhc2 (shZdhhc2). RT-PCR analysis was performed on cell RNA-extraction 24 h after transfection.
Total RNA was isolated from cultured cells using peqGOLD TriFast reagent according to the manufacturer's instructions (Axonlab). First strand cDNA was synthesized from 0.5 μg of total RNA using random primers and Superscript II (Invitrogen). […]
For the loss-of-function studies, shRNA specific for Zdhhc2 subcloned into a retroviral vector from Clontech were used (RNAi-Ready pSIREN-RetroQ ZsGreen or pSIREN). […]

Q: `Cc1c(C(=O)NN2CCCCC2)nn(-c2ccc(Cl)cc2Cl)c1-c1ccc(Cl)cc1` [rimonabant] was tested. Which glucose tolerance (C57BL/6J mice) did it give?
A: normalized glucose tolerance

B1: shLuc: negative control shRNA directed against luciferase, SEQ ID NO. 7 (nucleic acid)
chain: GATCCGTGCGTTGCTAGTACCAATTCAAGAGATTGGTACTAGCAACGCACTTTTTTACGCGTG
Q: For B1, which “inhibition of adipogenesis in vitro” value (3T3-L1 cells; 3T3-L1 cells, oil-red-O staining and aP2 expression at day 9) is on record?
A: no inhibition

B2: shZdhhc2-2: shRNA specific for Zdhhc2 in pSIREN retroviral vector; target sequence probably SEQ ID NO. 6 (nucleic acid)
DNA: GATCCGTATGAGCAACCCTGCATTTCAAGAGAATGCAGGGTTGCTCATACTTTTTTACGCGTG
Q: How did the “knockdown of Zdhhc2 expression” value (Zdhhc2) turn out when B2 was run?
A: 50%

Q: And the aP2 expression decreased (3T3-L1 cells; infected 3T3-L1 cells, day 9 of differentiation with DMI, RT-PCR)?
A: 60%
